Assay results published in patent US20130315910A1 (Xencor, published 2013).

T1: human FcγRIIb receptor protein (R&D Systems) (human, UniProt P31994 46-217)
T1 construct: Bought protein injected over captured antibody in Biacore; also called CD32b
T1 sequence (looked up): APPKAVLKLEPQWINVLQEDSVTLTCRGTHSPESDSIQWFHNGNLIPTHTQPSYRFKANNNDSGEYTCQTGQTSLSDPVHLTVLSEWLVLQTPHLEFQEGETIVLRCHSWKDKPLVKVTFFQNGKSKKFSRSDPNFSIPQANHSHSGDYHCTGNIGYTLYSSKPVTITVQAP

T2: cynoFcγRIIb (Macaca fascicularis, UniProt A0A140HDP4)
T2 construct: extracellular region, C-terminal His- and GST-tag; also called cynomolgus monkey FcγRIIb
T2 sequence (receptor extracellular region): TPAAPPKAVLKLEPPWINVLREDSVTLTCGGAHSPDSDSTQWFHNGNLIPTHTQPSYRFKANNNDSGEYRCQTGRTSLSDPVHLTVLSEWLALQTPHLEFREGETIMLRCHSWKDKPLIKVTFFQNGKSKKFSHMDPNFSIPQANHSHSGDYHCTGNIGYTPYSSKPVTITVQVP

T3: mFcγRIIb (Mus musculus, UniProt P08101)
T3 construct: extracellular region, C-terminal His- and GST-tag; also called mouse FcγRII
T3 sequence (receptor extracellular region, looked up): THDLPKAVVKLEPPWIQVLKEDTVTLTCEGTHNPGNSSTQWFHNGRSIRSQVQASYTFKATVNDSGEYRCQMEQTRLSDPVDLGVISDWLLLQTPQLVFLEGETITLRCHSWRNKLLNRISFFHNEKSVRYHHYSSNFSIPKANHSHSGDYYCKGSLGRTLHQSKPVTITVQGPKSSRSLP


Experiments:
Experiment in all cases: SPR
[1] = target: T1, human FcγRIIb receptor protein (R&D …)
cynoFcγRIIb = target: T2, cynoFcγRIIb
mFcγRIIb = target: T3, mFcγRIIb

| Fold vs WT IgG1 [1] | Kd [1] | Fold vs WT IgG1 (Kd) (cynoFcγRIIb) | Fold vs WT IgG1 (Kd) (mFcγRIIb) | binding result [1] | Binder |
| --- | --- | --- | --- | --- | --- |
| 1.91 fold | 0.767 µM | 2.92 fold | 2.79 fold |  | H268D/L328Y (antibody, human IgG1, kappa, HuAM4G7 anti-CD19 IgG1 (m1) with these Fc substitutions, EU index; copies: 2 + 2) heavy: not shown light: DIVMTQSPATLSLSPGERATLSCRSSKSLQNVNGNTYLYWFQQKPGQSPQLLIYRMSNLNSGVPDRFSGSGSGTEFTLTISSLEPEDFAVYYCMQHLEYPITFGAGTKLEIKRTVAAPSVFIFPPSDEQLKSGTASVVCLLNNFYPREAKVQWKVDNALQSGNSQESVTEQDSKDSTYSLSSTLTLSKADYEKHKVYACEVTHQGLSSPVTKSFNRGEC |
|  |  | 0.04 fold | 0.208 fold | no binding | S298L (antibody, human IgG1, kappa, HuAM4G7 anti-CD19 IgG1 (m1) with this Fc substitution, EU index; copies: 2 + 2) heavy: not shown light: DIVMTQSPATLSLSPGERATLSCRSSKSLQNVNGNTYLYWFQQKPGQSPQLLIYRMSNLNSGVPDRFSGSGSGTEFTLTISSLEPEDFAVYYCMQHLEYPITFGAGTKLEIKRTVAAPSVFIFPPSDEQLKSGTASVVCLLNNFYPREAKVQWKVDNALQSGNSQESVTEQDSKDSTYSLSSTLTLSKADYEKHKVYACEVTHQGLSSPVTKSFNRGEC |

More lines, now with the values behind:

| Binder | Fold vs WT IgG1 [1] | Kd [1] | Fold vs WT IgG1 (Kd) (cynoFcγRIIb) | Fold vs WT IgG1 (Kd) (mFcγRIIb) | binding result [1] |
| --- | --- | --- | --- | --- | --- |
| H268D/L328W/I332E (antibody, human IgG1, kappa, HuAM4G7 anti-CD19 IgG1 (m1) with these Fc substitutions, EU index; copies: 2 + 2) heavy: EVQLVESGGGLVKPGGSLKLSCAASGYTFTSYVMHWVRQAPGKGLEWIGYINPYNDGTKYNEKFQGRVTISSDKSISTAYMELSSLRSEDTAMYYCARGTYYYGTRVFDYWGQGTLVTVSSASTKGPSVFPLAPSSKSTSGGTAALGCLVKDYFPEPVTVSWNSGALTSGVHTFPAVLQSSGLYSLSSVVTVPSSSLGTQTYICNVNHKPSNTKVDKKVEPKSCDKTHTCPPCPAPELLGGPSVFLFPPKPKDTLMISRTPEVTCVVVDVSDEDPEVKFNWYVDGVEVHNAKTKPREEQYNSTYRVVSVLTVLHQDWLNGKEYKCKVSNKAWPAPEEKTISKAKGQPREPQVYTLPPSREEMTKNQVSLTCLVKGFYPSDIAVEWESNGQPENNYKTTPPVLDSDGSFFLYSKLTVDKSRWQQGNVFSCSVMHEALHNHYTQKSLSLSPGK light: DIVMTQSPATLSLSPGERATLSCRSSKSLQNVNGNTYLYWFQQKPGQSPQLLIYRMSNLNSGVPDRFSGSGSGTEFTLTISSLEPEDFAVYYCMQHLEYPITFGAGTKLEIKRTVAAPSVFIFPPSDEQLKSGTASVVCLLNNFYPREAKVQWKVDNALQSGNSQESVTEQDSKDSTYSLSSTLTLSKADYEKHKVYACEVTHQGLSSPVTKSFNRGEC | 39.8 fold | 0.0369 µM | 7.46 fold | 4.26 fold |  |
| L234W/H268D/L328Y (antibody, human IgG1, kappa, HuAM4G7 anti-CD19 IgG1 (m1) with these Fc substitutions, EU index; copies: 2 + 2) heavy: EVQLVESGGGLVKPGGSLKLSCAASGYTFTSYVMHWVRQAPGKGLEWIGYINPYNDGTKYNEKFQGRVTISSDKSISTAYMELSSLRSEDTAMYYCARGTYYYGTRVFDYWGQGTLVTVSSASTKGPSVFPLAPSSKSTSGGTAALGCLVKDYFPEPVTVSWNSGALTSGVHTFPAVLQSSGLYSLSSVVTVPSSSLGTQTYICNVNHKPSNTKVDKKVEPKSCDKTHTCPPCPAPEWLGGPSVFLFPPKPKDTLMISRTPEVTCVVVDVSDEDPEVKFNWYVDGVEVHNAKTKPREEQYNSTYRVVSVLTVLHQDWLNGKEYKCKVSNKAYPAPIEKTISKAKGQPREPQVYTLPPSREEMTKNQVSLTCLVKGFYPSDIAVEWESNGQPENNYKTTPPVLDSDGSFFLYSKLTVDKSRWQQGNVFSCSVMHEALHNHYTQKSLSLSPGK light: DIVMTQSPATLSLSPGERATLSCRSSKSLQNVNGNTYLYWFQQKPGQSPQLLIYRMSNLNSGVPDRFSGSGSGTEFTLTISSLEPEDFAVYYCMQHLEYPITFGAGTKLEIKRTVAAPSVFIFPPSDEQLKSGTASVVCLLNNFYPREAKVQWKVDNALQSGNSQESVTEQDSKDSTYSLSSTLTLSKADYEKHKVYACEVTHQGLSSPVTKSFNRGEC | 5.92 fold | 0.248 µM | 4.63 fold | 5.92 fold |  |
